From paper PMC4351158
Positions count from the first letter of the chain named. Names and notes keep the numbering of the source.

B1: DegP S210A/T176V (enzyme)
chain: AETSSATTAQQMPSLAPMLEKVMPSVVSINVEGSTTVNTPRMPRNFQQFFGDDSPFCQEGSPFQSSPFCQGGQGGNGGGQQQKFMALGSGVIIDADKGYVVTNNHVVDNATVIKVQLSDGRKFDAKMVGKDPRSDIALIQIQNPKNLTAIKMADSDALRVGDYTVAIGNPFGLGEVVTSGIVSALGRSGLNAENYENFIQTDAAINRGNAGGALVNLNGELIGINTAILAPDGGNIGIGFAIPSNMVKNLTSQMVEYGQVKRGELGIMGTELNSELAKAMKVDAQRGAFVSQVLPNSSAAKAGIKAGDVITSLNGKPISSFAALRAQVGTMPVGSKLTLGLLRDGKQVNVNLELQQSSQNQVDSSSIFNGIEGAEMSNKGKDQGVVVNNVKTGTPAAQIGLKKGDVIIGANQQAVKNIAELRKVLDSKPSVLALNIQRGDSTIYLLMQ
modifications: donor or acceptor dye on the trimers in the FRET assay only (site not given)
B2: DegP S210A/R187A (enzyme)
chain: B1 chain with V176T, R187A
modifications: donor or acceptor dye on the trimers in the FRET assay only (site not given)
B3: DegP S210A/Q200A (enzyme)
chain: B1 chain with V176T, Q200A
modifications: donor or acceptor dye on the trimers in the FRET assay only (site not given)
B4: DegP S210A (proteolytically inactive variant missing the catalytic serine) (enzyme)
chain: B1 chain with V176T
modifications: donor or acceptor dye on the trimers in the FRET assay only (site not given)

What follows are binders tested against fluorescent peptide derived from residues 18-58 of lysozyme (assay: fluorescence polarisation).

Row | Binder | Kd
1 | B1 | 30 µM
2 | B2 | 30 µM
3 | B3 | 30 µM

Molecular target: fluorescent peptide derived from residues 18-58 of lysozyme
Experiment: fluorescence polarisation
Remark: another data set of the same source

Row | Binder | Kd
4 | B4 | 1 µM
5 | B1 | 30 µM
6 | B2 | 30 µM
7 | B3 | 30 µM
